# T1: rCRR22 (UniProt Q3E6Q1 47-809)
# T1 sequence: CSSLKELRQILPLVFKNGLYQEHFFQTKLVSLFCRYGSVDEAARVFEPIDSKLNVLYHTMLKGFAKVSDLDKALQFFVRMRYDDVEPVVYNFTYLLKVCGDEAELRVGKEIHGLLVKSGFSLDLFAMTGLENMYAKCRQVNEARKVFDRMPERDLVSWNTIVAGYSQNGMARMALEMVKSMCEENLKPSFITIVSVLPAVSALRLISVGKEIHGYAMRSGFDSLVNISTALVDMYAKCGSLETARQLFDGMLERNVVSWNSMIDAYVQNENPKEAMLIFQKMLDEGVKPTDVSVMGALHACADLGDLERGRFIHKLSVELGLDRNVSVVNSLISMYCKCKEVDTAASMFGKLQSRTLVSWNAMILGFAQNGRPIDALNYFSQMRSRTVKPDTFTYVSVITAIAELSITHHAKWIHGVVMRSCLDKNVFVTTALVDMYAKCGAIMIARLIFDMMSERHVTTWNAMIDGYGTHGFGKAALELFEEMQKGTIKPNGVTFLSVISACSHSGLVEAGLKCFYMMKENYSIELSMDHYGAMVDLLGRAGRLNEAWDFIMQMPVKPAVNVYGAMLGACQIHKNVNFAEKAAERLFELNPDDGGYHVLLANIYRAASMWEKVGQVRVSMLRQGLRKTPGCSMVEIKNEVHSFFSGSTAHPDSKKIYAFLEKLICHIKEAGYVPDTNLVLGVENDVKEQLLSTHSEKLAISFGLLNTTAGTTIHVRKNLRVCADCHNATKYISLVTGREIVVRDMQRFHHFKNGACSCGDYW
# Molecular target: T1, rCRR22
# Assay: EMSA
row,Binder,binding result
1,UAACUGUCCUAGCUCUACCG (ssRNA) [ycf1],no binding
2,GACCUGGUGUAUCUUGUCUUUACCACGAAUGAUUUU (ssRNA) [ndhD1],no binding

# Molecular target: T2, rOTP82 (UniProt Q9LN01 41-741)
# Assay: EMSA
# T2 sequence (Q9LN01 41-741): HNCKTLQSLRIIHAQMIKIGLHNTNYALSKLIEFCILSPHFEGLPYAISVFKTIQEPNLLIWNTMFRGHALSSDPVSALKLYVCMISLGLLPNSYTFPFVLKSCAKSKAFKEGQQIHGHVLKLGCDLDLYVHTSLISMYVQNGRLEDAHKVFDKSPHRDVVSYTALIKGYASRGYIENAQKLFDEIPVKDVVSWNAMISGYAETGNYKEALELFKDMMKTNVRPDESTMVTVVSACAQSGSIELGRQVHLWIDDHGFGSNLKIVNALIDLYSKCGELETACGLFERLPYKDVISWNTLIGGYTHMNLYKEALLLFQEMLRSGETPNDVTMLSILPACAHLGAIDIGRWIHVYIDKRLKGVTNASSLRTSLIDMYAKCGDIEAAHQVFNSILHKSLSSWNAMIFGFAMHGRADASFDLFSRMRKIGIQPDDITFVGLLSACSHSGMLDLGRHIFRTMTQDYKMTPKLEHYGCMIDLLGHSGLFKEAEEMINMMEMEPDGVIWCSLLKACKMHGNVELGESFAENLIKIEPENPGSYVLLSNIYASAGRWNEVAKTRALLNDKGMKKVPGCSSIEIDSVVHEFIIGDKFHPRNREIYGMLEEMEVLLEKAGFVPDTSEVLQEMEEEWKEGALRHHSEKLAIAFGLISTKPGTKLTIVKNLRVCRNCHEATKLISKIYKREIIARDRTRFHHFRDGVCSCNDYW
row,Binder,binding result
1,GCAAUGUACAGCGGUCAAAUAGGAUCAUUUUCUUCU (ssRNA) [ndhD2],no binding
2,GACCUGGUGUAUCUUGUCUUUACCACGAAUGAUUUU (ssRNA) [ndhD1],no binding

# Molecular target: T1, rCRR22
# Assay: EMSA
# Remark: another data set of the same source
Binder,Kd [nM],binding result
GCUUUCCCUAGCCCCUUC (ssRNA) [ndhB7S2],70,–
UGCAGCUUCAACAUCUCC (ssRNA) [ndhD5S2],96.2,–
ndhB7L (ssRNA) RNA: AUCACUGUAGGAAUUGGGUUCAAGCUUUCCCUAGCCCCUUCUCAUCAAUGG,–,binds
rpoB3L (ssRNA) RNA: GGUUCAAGUUAUAACCCAGAAAUAAUUCGUGUAUAUAUUUCACAGAAACGU,–,binds
CAAGCUUUCCCUAGCCCCUUC (ssRNA) [ndhB7S],9.2,–
AAUAAUUCGUGUAUAUAUUUC (ssRNA) [rpoB3S],13.5 ± 2.5,–
ndhD5L (ssRNA) RNA: GUCGGUACAAUCCAAAUAAUUUAUGCAGCUUCAACAUCUCCCGGUCAACGU,–,binds
UUAUGCAGCUUCAACAUCUCC (ssRNA) [ndhD5S],10.8,–
AAUUCGUGUAUAUAUUUC (ssRNA) [rpoB3S2],18.9 ± 3.1,–

# Molecular target: T2, rOTP82
# Assay: EMSA
# Remark: another data set of the same source
Binder,binding result,Kd [nM]
ndhB9L (ssRNA) RNA: GCUUUUCUUUCUGUUACUUCGAAAGUAGCUGCUUCAGCUUCAGCCACUCGA,binds,–
UAGCUGCUUCAGCUUC (ssRNA) [ndhB9S],–,9.7
CUGCUUCAGCUUC (ssRNA) [ndhB9S2],–,119
UAGUUUUUCUGGGAUC (ssRNA) [ndhG1S],–,12.2
UUUUUCUGGGAUC (ssRNA) [ndhG1S2],–,167
ndhG1L (ssRNA) RNA: CCUGGACCAAUACAUGAUUUUCUUUUAGUUUUUCUGGGAUCCGGUCUUCUA,binds,–

# From publication PMC3367199
